{"source": "paper PMC4982613", "assay_in_all_cases": "EMSA", "key": {"[1]": {"molecular_target": "NEIL1 S306E S306E (human) (UniProt Q96FI4)", "sequence (Q96FI4 whole entry S306E)": "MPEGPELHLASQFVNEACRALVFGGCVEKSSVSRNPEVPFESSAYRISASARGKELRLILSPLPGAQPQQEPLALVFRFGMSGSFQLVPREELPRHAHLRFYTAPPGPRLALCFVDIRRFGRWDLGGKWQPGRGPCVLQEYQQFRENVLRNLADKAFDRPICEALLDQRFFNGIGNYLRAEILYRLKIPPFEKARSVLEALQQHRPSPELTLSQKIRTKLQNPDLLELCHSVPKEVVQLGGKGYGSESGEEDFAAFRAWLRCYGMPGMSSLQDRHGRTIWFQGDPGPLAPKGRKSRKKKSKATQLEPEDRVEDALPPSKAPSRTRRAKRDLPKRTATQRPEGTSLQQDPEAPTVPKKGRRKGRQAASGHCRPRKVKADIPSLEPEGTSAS", "conditions": "tetrahydrofuran (abasic site analog) at position 14 of strand 1 (N), opposite C; EMSA: 10 pM 32P-DNA, 0-600 nM enzyme, 10% native PAGE, 2 h at 10 mA; binding buffer, salt, pH and temperature not stated; one-site specific binding fit (Prism …)"}, "[2]": {"molecular_target": "NEIL1 WT (human) (UniProt Q96FI4)", "sequence (Q96FI4 whole entry)": "as the sequence (Q96FI4 whole entry S306E) above, with E306S counted along it", "conditions": "tetrahydrofuran (abasic site analog) at position 14 of strand 1 (N), opposite C; EMSA: 10 pM 32P-DNA, 0-600 nM enzyme, 10% native PAGE, 2 h at 10 mA; binding buffer, salt, pH and temperature not stated; one-site specific binding fit (Prism …)"}, "[3]": {"molecular_target": "NEIL1 TA S207A;S306A;S61A (human) (UniProt Q96FI4)", "sequence (Q96FI4 whole entry S61A/S207A/S306A)": "as the sequence (Q96FI4 whole entry S306E) above, with S61A, S207A, E306A counted along it", "conditions": "tetrahydrofuran (abasic site analog) at position 14 of strand 1 (N), opposite C; EMSA: 10 pM 32P-DNA, 0-600 nM enzyme, 10% native PAGE, 2 h at 10 mA; binding buffer, salt, pH and temperature not stated; one-site specific binding fit (Prism …)"}, "[4]": {"molecular_target": "NEIL1 S61E S61E (human) (UniProt Q96FI4)", "sequence (Q96FI4 whole entry S61E)": "as the sequence (Q96FI4 whole entry S306E) above, with S61E, E306S counted along it", "conditions": "tetrahydrofuran (abasic site analog) at position 14 of strand 1 (N), opposite C; EMSA: 10 pM 32P-DNA, 0-600 nM enzyme, 10% native PAGE, 2 h at 10 mA; binding buffer, salt, pH and temperature not stated; one-site specific binding fit (Prism …)"}, "[5]": {"molecular_target": "NEIL1 S207E S207E (human) (UniProt Q96FI4)", "sequence (Q96FI4 whole entry S207E)": "as the sequence (Q96FI4 whole entry S306E) above, with S207E, E306S counted along it", "conditions": "tetrahydrofuran (abasic site analog) at position 14 of strand 1 (N), opposite C; EMSA: 10 pM 32P-DNA, 0-600 nM enzyme, 10% native PAGE, 2 h at 10 mA; binding buffer, salt, pH and temperature not stated; one-site specific binding fit (Prism …)"}, "[6]": {"molecular_target": "NEIL1 DA S207A;S306A (human) (UniProt Q96FI4)", "sequence (Q96FI4 whole entry S207A/S306A)": "as the sequence (Q96FI4 whole entry S306E) above, with S207A, E306A counted along it", "conditions": "tetrahydrofuran (abasic site analog) at position 14 of strand 1 (N), opposite C; EMSA: 10 pM 32P-DNA, 0-600 nM enzyme, 10% native PAGE, 2 h at 10 mA; binding buffer, salt, pH and temperature not stated; one-site specific binding fit (Prism …)"}, "[7]": {"molecular_target": "NEIL1 TE S207E;S306E;S61E (human) (UniProt Q96FI4)", "sequence (Q96FI4 whole entry S61E/S207E/S306E)": "as the sequence (Q96FI4 whole entry S306E) above, with S61E, S207E counted along it", "conditions": "upper bands may lower Kd; tetrahydrofuran (abasic site analog) at position 14 of strand 1 (N), opposite C; EMSA: 10 pM 32P-DNA, 0-600 nM enzyme, 10% native PAGE, 2 h at 10 mA; binding buffer, salt, pH and temperature not stated; one-site specific binding fit (Prism …)"}, "[8]": {"molecular_target": "NEIL1 S61A S61A (human) (UniProt Q96FI4)", "sequence (Q96FI4 whole entry S61A)": "as the sequence (Q96FI4 whole entry S306E) above, with S61A, E306S counted along it", "conditions": "tetrahydrofuran (abasic site analog) at position 14 of strand 1 (N), opposite C; EMSA: 10 pM 32P-DNA, 0-600 nM enzyme, 10% native PAGE, 2 h at 10 mA; binding buffer, salt, pH and temperature not stated; one-site specific binding fit (Prism …)"}, "[9]": {"molecular_target": "NEIL1 S306A S306A (human) (UniProt Q96FI4)", "sequence (Q96FI4 whole entry S306A)": "as the sequence (Q96FI4 whole entry S306E) above, with E306A counted along it", "conditions": "upper bands may lower Kd; tetrahydrofuran (abasic site analog) at position 14 of strand 1 (N), opposite C; EMSA: 10 pM 32P-DNA, 0-600 nM enzyme, 10% native PAGE, 2 h at 10 mA; binding buffer, salt, pH and temperature not stated; one-site specific binding fit (Prism …)"}, "[10]": {"molecular_target": "NEIL1 DE S207E;S306E (human) (UniProt Q96FI4)", "sequence (Q96FI4 whole entry S207E/S306E)": "as the sequence (Q96FI4 whole entry S306E) above, with S207E counted along it", "conditions": "tetrahydrofuran (abasic site analog) at position 14 of strand 1 (N), opposite C; EMSA: 10 pM 32P-DNA, 0-600 nM enzyme, 10% native PAGE, 2 h at 10 mA; binding buffer, salt, pH and temperature not stated; one-site specific binding fit (Prism …)"}, "[11]": {"molecular_target": "NEIL1 S207A S207A (human) (UniProt Q96FI4)", "sequence (Q96FI4 whole entry S207A)": "as the sequence (Q96FI4 whole entry S306E) above, with S207A, E306S counted along it", "conditions": "multiple complexes (C1+C2+C3) quantified; tetrahydrofuran (abasic site analog) at position 14 of strand 1 (N), opposite C; EMSA: 10 pM 32P-DNA, 0-600 nM enzyme, 10% native PAGE, 2 h at 10 mA; binding buffer, salt, pH and temperature not stated; one-site specific binding fit (Prism …)"}}, "data": [{"sequence": "TGTCAATAGCAAGNGGAGAAGTCAATCGTGAGTCT / AGACTCACGATTGACTTCTCCCCTTGCTATTGACA [35-mer Furan:C duplex]", "values": [{"measurement": "Kd", "setting": "[1]", "value": 0.0078, "unit": "µM"}, {"measurement": "Kd", "setting": "[2]", "value": 0.023, "unit": "µM"}, {"measurement": "Kd", "setting": "[3]", "value": 0.0132, "unit": "µM"}, {"measurement": "Kd", "setting": "[4]", "value": 0.0196, "unit": "µM"}, {"measurement": "Kd", "setting": "[5]", "value": 0.0045, "unit": "µM"}, {"measurement": "Kd", "setting": "[6]", "value": 0.0108, "unit": "µM"}, {"measurement": "Kd", "setting": "[7]", "value": 0.0013, "unit": "µM"}, {"measurement": "Kd", "setting": "[8]", "value": 0.0162, "unit": "µM"}, {"measurement": "Kd", "setting": "[9]", "value": 0.0023, "unit": "µM"}, {"measurement": "Kd", "setting": "[10]", "value": 0.015, "unit": "µM"}, {"measurement": "Kd", "setting": "[11]", "value": 0.0032, "unit": "µM"}]}]}
